The target of data set [1] is T1, DnaG (Saccharolobus (Sulfolobus) solfataricus, UniProt P95980 1-406).
T1 sequence: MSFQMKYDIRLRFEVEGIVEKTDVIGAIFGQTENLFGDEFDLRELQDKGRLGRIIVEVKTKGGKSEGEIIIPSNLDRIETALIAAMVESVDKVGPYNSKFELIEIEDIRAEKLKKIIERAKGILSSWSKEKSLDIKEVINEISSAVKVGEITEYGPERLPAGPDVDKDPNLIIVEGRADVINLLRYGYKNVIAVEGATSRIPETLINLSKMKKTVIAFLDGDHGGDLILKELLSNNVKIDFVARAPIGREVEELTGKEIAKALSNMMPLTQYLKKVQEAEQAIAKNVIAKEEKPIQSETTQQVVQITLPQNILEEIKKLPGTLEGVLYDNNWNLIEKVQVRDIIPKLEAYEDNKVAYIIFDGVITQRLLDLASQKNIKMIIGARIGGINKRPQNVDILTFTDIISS
In words: EMSA; 25 fmol DNA, 2.5 pmol protein; 20 mM HEPES pH 7.9, 60 mM KCl, 10 mM MgCl2, 10% glycerol, 2 mM DTT, 0.1 mM EDTA; room temperature 5 min, 10 ul; 5% native PAA gel at 4 C.

The target in a further data set is T2, Csl4 (Saccharolobus (Sulfolobus) solfataricus, UniProt Q980J9 1-189).
T2 sequence: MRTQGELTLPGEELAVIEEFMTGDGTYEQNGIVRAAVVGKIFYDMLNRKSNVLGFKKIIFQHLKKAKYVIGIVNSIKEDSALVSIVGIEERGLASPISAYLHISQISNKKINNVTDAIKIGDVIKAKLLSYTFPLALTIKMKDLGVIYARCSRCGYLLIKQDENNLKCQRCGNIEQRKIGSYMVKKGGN
In words: EMSA; 25 fmol RNA; 20 mM HEPES pH 7.9, 60 mM KCl, 10 mM MgCl2, 10% glycerol, 2 mM DTT, 0.1 mM EDTA; room temperature 5 min, 10 ul; 5% native PAA gel at 4 C.

Another data set has as its target T3, Csl4-NT (Saccharolobus (Sulfolobus) solfataricus, UniProt Q980J9 1-189+=V+P95980:2-156, internal_change).
T3 sequence: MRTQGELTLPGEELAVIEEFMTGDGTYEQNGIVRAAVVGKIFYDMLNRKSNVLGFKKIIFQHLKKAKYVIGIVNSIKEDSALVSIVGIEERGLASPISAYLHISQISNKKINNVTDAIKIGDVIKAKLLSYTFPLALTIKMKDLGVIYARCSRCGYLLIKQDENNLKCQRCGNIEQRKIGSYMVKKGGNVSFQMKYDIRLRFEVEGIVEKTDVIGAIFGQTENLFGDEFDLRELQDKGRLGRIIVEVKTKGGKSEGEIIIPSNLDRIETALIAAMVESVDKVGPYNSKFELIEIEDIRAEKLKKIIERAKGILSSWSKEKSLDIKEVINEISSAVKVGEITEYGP
Described as above.

In data set [2] the target is T1, DnaG. In words: EMSA; 25 fmol RNA, 2.5 pmol protein; 20 mM HEPES pH 7.9, 60 mM KCl, 10 mM MgCl2, 10% glycerol, 2 mM DTT, 0.1 mM EDTA; room temperature 5 min, 10 ul; 5% native PAA gel at 4 C.
A further data set concerns the target T4, DnaG-K6AY7A (Saccharolobus (Sulfolobus) solfataricus, UniProt P95980 1-406, K6A;Y7A).
T4 sequence: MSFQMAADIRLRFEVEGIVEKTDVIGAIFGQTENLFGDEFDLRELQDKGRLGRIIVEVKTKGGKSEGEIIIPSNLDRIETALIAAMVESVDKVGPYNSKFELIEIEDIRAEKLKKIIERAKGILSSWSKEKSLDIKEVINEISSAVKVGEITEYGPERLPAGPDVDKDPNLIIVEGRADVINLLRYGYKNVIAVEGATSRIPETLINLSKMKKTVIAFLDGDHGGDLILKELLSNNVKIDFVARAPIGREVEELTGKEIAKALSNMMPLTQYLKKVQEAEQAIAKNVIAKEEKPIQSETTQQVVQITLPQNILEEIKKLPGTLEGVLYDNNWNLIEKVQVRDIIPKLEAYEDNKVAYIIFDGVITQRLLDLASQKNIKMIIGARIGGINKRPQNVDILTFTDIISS
The description is as above.

Data set [3] deals with T5, His6-Rrp41 of Sulfolobus solfataricus (Sulfolobus solfataricus, UniProt Q9UXC2 1-248).
T5 sequence (looked up): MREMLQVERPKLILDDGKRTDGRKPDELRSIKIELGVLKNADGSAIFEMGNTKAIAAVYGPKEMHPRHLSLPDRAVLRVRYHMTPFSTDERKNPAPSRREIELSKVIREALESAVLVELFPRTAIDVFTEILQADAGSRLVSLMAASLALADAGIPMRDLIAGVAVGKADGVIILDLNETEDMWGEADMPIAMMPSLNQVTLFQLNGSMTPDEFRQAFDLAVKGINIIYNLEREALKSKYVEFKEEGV
The data set can be described thus: pull-down; subunits of the reconstituted Strep-Csl4 exosome (purified His6-Rrp41, His6-Rrp42 and Strep-tagged Csl4 mixed in buffer P0) recovered on Strep-Tactin Sepharose through Strep-Csl4, E. coli cell-free extract with DnaG-K6AY7A present; eluted with D-desthiobiotin; silver-stained SDS-PAGE. The note with it: both partners purified.

Data set [4] concerns the target T6, His6-Rrp42 of Sulfolobus solfataricus (Sulfolobus solfataricus, UniProt Q9UXC0 1-275).
T6 sequence (looked up): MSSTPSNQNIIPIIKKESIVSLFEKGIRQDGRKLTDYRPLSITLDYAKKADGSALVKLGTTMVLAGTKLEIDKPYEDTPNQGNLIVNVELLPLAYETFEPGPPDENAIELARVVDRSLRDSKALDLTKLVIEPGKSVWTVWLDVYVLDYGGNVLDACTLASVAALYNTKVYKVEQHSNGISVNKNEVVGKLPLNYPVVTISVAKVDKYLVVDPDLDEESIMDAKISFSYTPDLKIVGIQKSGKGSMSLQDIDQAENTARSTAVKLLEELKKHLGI
The description is as above. The note with it: both partners purified.

B1: poly(dA)30 (ssDNA)
DNA: AAAAAAAAAAAAAAAAAAAAAAAAAAAAAA
Turning to B1, the binding result with DnaG [1] is recorded as “no binding”.

B2: poly(rA)30 (ssRNA)
RNA: AAAAAAAAAAAAAAAAAAAAAAAAAAAAAA
For the molecule B2, the binding result with Csl4 is “no binding”; with Csl4-NT, “binds”; with DnaG [2], “binds”; with DnaG-K6AY7A it was “no binding”.

B3: Strep-tagged Csl4 of Sulfolobus solfataricus (natural protein, UniProt Q980J9 1-189, looked up)
chain: MRTQGELTLPGEELAVIEEFMTGDGTYEQNGIVRAAVVGKIFYDMLNRKSNVLGFKKIIFQHLKKAKYVIGIVNSIKEDSALVSIVGIEERGLASPISAYLHISQISNKKINNVTDAIKIGDVIKAKLLSYTFPLALTIKMKDLGVIYARCSRCGYLLIKQDENNLKCQRCGNIEQRKIGSYMVKKGGN
As to B3, the binding result in data set [3] and in data set [4] was “binds” in each case.

The values above are taken from PMC4227792 (Nucleic Acids Research, 2014).
